Measurements reported in patent publication US20230265151A1, “GIP/GLP1 CO-AGONIST COMPOUNDS” (priority 2020, published 2023).
*1 amine or outer side, *2 acyl side, *3 side chain or, on linkers, in order; H or OH if unused. Where no end group is shown, it is not given here. Side-chain parts run from the residue outwards. [ ]: non-standard residue; d: D form. The star is where a group is joined. αMePhe(2-F) = C[C@](N)(Cc1ccccc1F)C(=O)O; γGlu = O=C(O)[C@H](CCC(=O)[*:2])N[*:1]; C14 diacid = O=C(O)CCCCCCCCCCCCC(=O)*; αMeY = C[C@](N)(Cc1ccc(O)cc1)C(=O)O; αMeL = CC(C)C[C@](C)(N)C(=O)O; Nle = CCCC[C@H](N)C(=O)O; Orn = NCCC[C@H](N)C(=O)O; AEEA = NCCOCCOCC(=O)O; Aib = CC(C)(N)C(=O)O

T1: human GIP receptor (human, UniProt P48546 22-466)
T1 sequence (looked up): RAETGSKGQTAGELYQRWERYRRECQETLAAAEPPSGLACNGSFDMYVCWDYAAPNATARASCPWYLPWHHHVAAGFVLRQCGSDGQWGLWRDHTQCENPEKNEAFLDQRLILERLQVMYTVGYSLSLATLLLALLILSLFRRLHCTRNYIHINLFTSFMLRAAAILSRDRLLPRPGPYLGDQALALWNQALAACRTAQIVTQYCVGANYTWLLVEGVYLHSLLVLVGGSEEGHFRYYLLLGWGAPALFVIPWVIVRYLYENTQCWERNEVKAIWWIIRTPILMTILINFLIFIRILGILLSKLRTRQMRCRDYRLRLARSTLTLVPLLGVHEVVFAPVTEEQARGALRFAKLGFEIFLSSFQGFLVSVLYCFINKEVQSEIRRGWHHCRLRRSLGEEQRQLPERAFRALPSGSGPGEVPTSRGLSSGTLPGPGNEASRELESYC

B1: Example 271 (peptide)
peptide: YXEGTXTSDXSIXLDXKAQXKFIXXLIEGGPSSGAPPPS
modifications: Y-Aib-EGT-αMeF(2F)-TSD-Nle-SI-αMeL-LD-Orn-K((2-[2-(2-Amino-ethoxy)-ethoxy]-acetyl)2-CO-(CH2)12-CO2H)AQ-Aib-K((2-[2-(2-Amino-ethoxy)-ethoxy]-acetyl)2-CO-(CH2)12-CO2H)FI-(D-Glu)-αMeY-LIEGGPSSGAPPPS-NH2
B2: Example 284 (peptide)
peptide: YXEGTXTSDXSIXLDXIAQXKFIXXLIKGGPSSGAPPPS
modifications: Y-Aib-EGT-αMeF(2F)-TSD-2Nal-SI-αMeL-LD-Orn-IAQ-Aib-K((2-[2-(2-Amino-ethoxy)-ethoxy]-acetyl)2-(γ-Glu)-(10-(4-carboxyphenoxy)decanoyl))FI-(D-Glu)-αMeY-LIK((2-[2-(2-Amino-ethoxy)-ethoxy]-acetyl)2-(γ-Glu)-(10-(4-carboxyphenoxy)decanoyl))GGPSSGAPPPS-NH2
B3: Example 260 (peptide)
peptide: YXEGTXTSDXSIXLDXKAQXEFIXXLIKGGPSSGAPPPS
modifications: Y-Aib-EGT-αMeF(2F)-TSD-OMeY-SI-αMeL-LD-Orn-K((2-[2-(2-Amino-ethoxy)-ethoxy]-acetyl)2-(γ-Glu)-CO-(CH2)12-CO2H)AQ-Aib-EFI-(D-Glu)-αMeY-LIK((2-[2-(2-Amino-ethoxy)-ethoxy]-acetyl)2-(γ-Glu)-CO-(CH2)12-CO2H)GGPSSGAPPPS-NH2
B4: Example 263 (peptide)
peptide: YXEGTXTSDXSIXLDXIAQXKFIXXLIKGGPSSGAPPPS
modifications: Y-Aib-EGT-αMeF(2F)-TSD-OMeY-SI-αMeL-LD-Orn-IAQ-Aib-K((2-[2-(2-Amino-ethoxy)-ethoxy]-acetyl)2-(γ-Glu)-CO-(CH2)12-CO2H)FI-(D-Glu)-αMeY-LIK((2-[2-(2-Amino-ethoxy)-ethoxy]-acetyl)2-(γ-Glu)-CO-(CH2)12-CO2H)GGPSSGAPPPS-NH2
B5: Example 275 (peptide)
peptide: YXEGTXTSDXSIXLDXIAQXKFIXXLIKGGPSSGAPPPS
modifications: Y-Aib-EGT-αMeF(2F)-TSD-4Pa1-SI-αMeL-LD-Orn-IAQ-Aib-K((2-[2-(2-Amino-ethoxy)-ethoxy]-acetyl)2-(γ-Glu)-(10-(4-carboxyphenoxy)decanoyl))FI-(D-Glu)-αMeY-LIK((2-[2-(2-Amino-ethoxy)-ethoxy]-acetyl)2-(γ-Glu)-(10-(4-carboxyphenoxy)decanoyl))GGPSSGAPPPS-NH2
B6: Example 283 (peptide)
peptide: YXEGTXTSDXSIXLDXIAQXEFIKXLIKGGPSSGAPPPS
modifications: Y-Aib-EGT-αMeF(2F)-TSD-2Nal-SI-αMeL-LD-Orn-IAQ-Aib-EFIK((2-[2-(2-Amino-ethoxy)-ethoxy]-acetyl)2-(γ-Glu)-(10-(4-carboxyphenoxy)decanoyl))-αMeY-LIK((2-[2-(2-Amino-ethoxy)-ethoxy]-acetyl)2-(γ-Glu)-(10-(4-carboxyphenoxy)decanoyl))GGPSSGAPPPS-NH2
B7: Example 269 (peptide)
peptide: Y[Aib]EGT[αMePhe(2-F)]TSD[Nle]SI[αMeL]LD[Orn]IAQ[Aib]EFIK([AEEA-AEEA-γGlu-C14 diacid])[αMeY]LIK([AEEA-AEEA-γGlu-C14 diacid])GGPSSGAPPPS-NH2
modifications: N-terminus assumed
SMILES: CCCC[C@H](NC(=O)[C@H](CC(=O)O)NC(=O)[C@H](CO)NC(=O)[C@@H](NC(=O)[C@](C)(Cc1ccccc1F)NC(=O)[C@@H](NC(=O)CNC(=O)[C@H](CCC(=O)O)NC(=O)C(C)(C)NC(=O)[C@@H](N)Cc1ccc(O)cc1)[C@@H](C)O)[C@@H](C)O)C(=O)N[C@@H](CO)C(=O)N[C@H](C(=O)N[C@@](C)(CC(C)C)C(=O)N[C@@H](CC(C)C)C(=O)N[C@@H](CC(=O)O)C(=O)N[C@@H](CCCN)C(=O)N[C@H](C(=O)N[C@@H](C)C(=O)N[C@@H](CCC(N)=O)C(=O)NC(C)(C)C(=O)N[C@@H](CCC(=O)O)C(=O)N[C@@H](Cc1ccccc1)C(=O)N[C@H](C(=O)N[C@@H](CCCCNC(=O)COCCOCCNC(=O)COCCOCCNC(=O)CC[C@H](NC(=O)CCCCCCCCCCCCC(=O)O)C(=O)O)C(=O)N[C@@](C)(Cc1ccc(O)cc1)C(=O)N[C@@H](CC(C)C)C(=O)N[C@H](C(=O)N[C@@H](CCCCNC(=O)COCCOCCNC(=O)COCCOCCNC(=O)CC[C@H](NC(=O)CCCCCCCCCCCCC(=O)O)C(=O)O)C(=O)NCC(=O)NCC(=O)N1CCC[C@H]1C(=O)N[C@@H](CO)C(=O)N[C@@H](CO)C(=O)NCC(=O)N[C@@H](C)C(=O)N1CCC[C@H]1C(=O)N1CCC[C@H]1C(=O)N1CCC[C@H]1C(=O)N[C@@H](CO)C(N)=O)[C@@H](C)CC)[C@@H](C)CC)[C@@H](C)CC)[C@@H](C)CC
B8: Example 258 (peptide)
peptide: YXEGTXTSDXSIXLDXIAQXKFIXXLIEGGPSSGAPPPSK
modifications: Y-Aib-EGT-αMeF(2F)-TSD-2Nal-SI-αMeL-LD-Orn-IAQ-Aib-K((2-[2-(2-Amino-ethoxy)-ethoxy]-acetyl)2-CO-(CH2)12-CO2H)Fl-(D-Glu)-αMeY-LIEGGPSSGAPPPSK((2-[2-(2-Amino-ethoxy)-ethoxy]-acetyl)2-CO-(CH2)12-CO2H)-NH2
B9: Example 267 (peptide)
peptide: YXEGTXTSDXSIXLDXKAQXEFIXXLIEGGPSSGAPPPSK
modifications: Y-Aib-EGT-αMeF(2F)-TSD-OMeY-SI-αMeL-LD-Orn-K((2-[2-(2-Amino-ethoxy)-ethoxy]-acetyl)2-CO-(CH2)12-CO2H)AQ-Aib-EFI-(D-Glu)-αMeY-LIEGGPSSGAPPPSK((2-[2-(2-Amino-ethoxy)-ethoxy]-acetyl)2-CO-(CH2)12-CO2H)-NH2
B10: Example 268 (peptide)
peptide: YXEGTXTSDXSIXLDXIAQXKFIXXLIEGGPSSGAPPPSK
modifications: Y-Aib-EGT-αMeF(2F)-TSD-OMeY-SI-αMeL-LD-Orn-IAQ-Aib-K((2-[2-(2-Amino-ethoxy)-ethoxy]-acetyl)2-CO-(CH2)12-CO2H)FI-(D-Glu)-αMeY-LIEGGPSSGAPPPSK((2-[2-(2-Amino-ethoxy)-ethoxy]-acetyl)2-CO-(CH2)12-CO2H)-NH2
B11: Example 264 (peptide)
peptide: YXEGTXTSDXSIXLDXIAQXKFIXXLIEGGPSSGAPPPSK
modifications: Y-Aib-EGT-αMeF(2F)-TSD-OMeY-SI-αMeL-LD-Orn-IAQ-Aib-K((2-[2-(2-Amino-ethoxy)-ethoxy]-acetyl)2-(γ-Glu)-CO-(CH2)12-CO2H)FI-(D-Glu)-αMeY-LIEGGPSSGAPPPSK((2-[2-(2-Amino-ethoxy)-ethoxyl-acetyl)2-(γ-Glu)-CO-(CH2)12-CO2H)-NH2
B12: Example 276 (peptide)
peptide: YXEGTXTSDXSIXLDXIAQXKFIXXLIEGGPSSGAPPPSK
modifications: Y-Aib-EGT-αMeF(2F)-TSD-4Pal-SI-αMeL-LD-Orn-IAQ-Aib-K((2-[2-(2-Amino-ethoxy)-ethoxy]-acetyl)2-(y-Glu)-(10-(4-carboxyphenoxy)decanoyl))FI-(D-Glu)-αMeY-LIEGGPSSGAPPPSK((2-[2-(2-Amino-ethoxy)-ethoxy]-acetyl)2-(γ-Glu)-(10-(4-carboxyphenoxy)decanoyl))-NH2
B13: Example 288 (peptide)
peptide: YXEGTXTSDXSIXLDXIAQXKFIXXLIEGGPSSGAPPPSK
modifications: Y-Aib-EGT-αMeF(2F)-TSD-4Pal-SI-αMeL-LD-Orn-IAQ-Aib-K(2-[2-(2-Amino-ethoxy)-ethoxy]-acetyl)2-(γ-Glu)-(11-(4-carboxyphenoxy)undecanoyl)FI-(D-Glu)-αMeY-LIEGGPSSGAPPPSK((2-[2-(2-Amino-ethoxy)-ethoxy]-acetyl)2-(γ-Glu)-(11-(4-carboxyphenoxy)undecanoyl)-NH2)
B14: Example 261 (peptide)
peptide: YXEGTXTSDXSIXLDXKAQXEFIXXLIEGGPSSGAPPPSK
modifications: Y-Aib-EGT-αMeF(2F)-TSD-OMeY-SI-αMeL-LD-Orn-K((2-[2-(2-Amino-ethoxy)-ethoxy]-acetyl)2-(γ-Glu)-CO-(CH2)12-CO2H)AQ-Aib-EFI-(D-Glu)-αMeY-LIEGGPSSGAPPPSK((2-[2-(2-Amino-ethoxy)-ethoxy]-acetyl)2-(γ-Glu)-CO-(CH2)12-CO2H)-NH2
B15: Example 285 (peptide)
peptide: YXEGTXTSDXSIXLDXKAQXEFIXXLIEGGPSSGAPPPSK
modifications: Y-Aib-EGT-αMeF(2F)-TSD-4Pal-SI-αMeL-LD-Orn-K((2-[2-(2-Amino-ethoxy)-ethoxy]-acetyl)2-(γ-Glu)-(11-(4-carboxyphenoxy)undecanoyl))AQ-Aib-EFI-(D-Glu)-αMeY-LIEGGPSSGAPPPSK((2-[2-(2-Amino-ethoxy)-ethoxy]-acetyl)2-(γ-Glu)-(11-(4-carboxyphenoxy)undecanoyl))-NH2
B16: Example 273 (peptide)
peptide: YXEGTXTSDXSIXLDXKAQXEFIXXLIEGGPSSGAPPPSK
modifications: Y-Aib-EGT-αMeF(2F)-TSD-4Pal-SI-αMeL-LD-Orn-K((2-[2-(2-Amino-ethoxy)-ethoxy]-acetyl)2-(γ-Glu)-(10-(4-carboxyphenoxy)decanoyl))AQ-Aib-EFI-(D-Glu)-αMeY-LIEGGPSSGAPPPSK((2-[2-(2-Amino-ethoxy)-ethoxy]-acetyl)2-(γ-Glu)-(10-(4-carboxyphenoxy)decanoyl))-NH2

Assays:
Assay in all cases: cell-based or functional assay
human GLP-1 receptor = human GLP-1 receptor (human, UniProt P43220 24-463)
human glucagon receptor = human glucagon receptor (human, UniProt P47871 26-477)
human GIP receptor = molecular target: T1, human GIP receptor

Binder	cAMP EC50 (1.0% HSA) (human GLP-1 receptor)	cAMP EC50 (1.0% HSA) (human glucagon receptor)	cAMP EC50 (1.0% HSA) (human GIP receptor)	cAMP Emax (1.0% HSA) (human GIP receptor)	cAMP Emax (1.0% HSA) (human GLP-1 receptor)
B1	10.2 nM	> 9950 nM	0.767 nM		
B2	137 nM	> 9950 nM	8.38 nM		
B3	32 nM	> 9950 nM	3.27 nM		
B4	56.7 nM	> 9950 nM	5.91 nM		
B5	33.5 nM	> 9950 nM	0.926 nM		
B6	49.5 nM	> 9950 nM	4.88 nM		
B7	46.5 nM	> 9950 nM	2.65 nM		
B8	41.5 nM	> 9950 nM	5.28 nM	84.3%	
B9	8.46 nM	> 9950 nM	0.808 nM		
B10	26.5 nM	> 9950 nM	5.06 nM	92.3%	
B11	75.2 nM	> 9950 nM	7.12 nM	84.4%	
B12	63.6 nM	> 9950 nM	1.97 nM	91.4%	
B13	17.1 nM	> 9950 nM	0.48 nM	85.2%	123%
B14	15.6 nM	> 9950 nM	2.28 nM	75.7%	
B15	136 nM	> 9950 nM	1.28 nM		
B16	40.9 nM	> 9950 nM	0.318 nM		
